# According to article PMC3413157:
# Where two headings read alike, the source gives them in different places.
# T1: Dna2 (hDna2) (human, UniProt P51530 1-1060)
# T1 sequence: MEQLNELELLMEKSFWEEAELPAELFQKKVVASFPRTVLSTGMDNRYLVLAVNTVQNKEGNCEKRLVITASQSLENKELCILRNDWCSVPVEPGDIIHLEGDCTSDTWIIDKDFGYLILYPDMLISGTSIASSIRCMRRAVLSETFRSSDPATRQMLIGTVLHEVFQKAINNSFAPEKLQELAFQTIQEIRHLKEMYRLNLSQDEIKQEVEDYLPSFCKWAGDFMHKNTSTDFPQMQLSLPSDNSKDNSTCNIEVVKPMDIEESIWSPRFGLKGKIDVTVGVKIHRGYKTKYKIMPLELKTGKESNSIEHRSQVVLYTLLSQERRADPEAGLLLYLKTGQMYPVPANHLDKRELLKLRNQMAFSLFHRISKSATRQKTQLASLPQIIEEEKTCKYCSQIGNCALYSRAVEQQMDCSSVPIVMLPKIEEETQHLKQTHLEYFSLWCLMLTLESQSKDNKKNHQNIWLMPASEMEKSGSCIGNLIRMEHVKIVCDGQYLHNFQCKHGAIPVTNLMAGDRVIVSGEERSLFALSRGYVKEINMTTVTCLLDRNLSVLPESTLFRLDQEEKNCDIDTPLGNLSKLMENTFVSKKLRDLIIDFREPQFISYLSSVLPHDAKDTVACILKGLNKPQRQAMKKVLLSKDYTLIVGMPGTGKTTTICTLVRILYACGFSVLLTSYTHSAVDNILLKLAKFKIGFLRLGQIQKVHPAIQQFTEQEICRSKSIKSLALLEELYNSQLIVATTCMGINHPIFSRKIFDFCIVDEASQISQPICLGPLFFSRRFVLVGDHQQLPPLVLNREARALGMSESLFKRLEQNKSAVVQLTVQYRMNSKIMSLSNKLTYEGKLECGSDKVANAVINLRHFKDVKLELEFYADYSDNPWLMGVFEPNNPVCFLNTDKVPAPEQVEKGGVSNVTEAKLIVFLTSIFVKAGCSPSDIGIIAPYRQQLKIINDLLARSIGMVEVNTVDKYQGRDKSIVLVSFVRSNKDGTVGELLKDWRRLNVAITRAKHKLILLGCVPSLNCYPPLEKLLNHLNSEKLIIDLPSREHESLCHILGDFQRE
# B1: 15 nt 5'-tail (T4:D2.15) (mixed)
# DNA 1: ATACGCGCTATAACCCCCGTCCACCCGACGCCACCTCCTGC
# DNA 2: GCAGGAGGTGGCGTCGGGTGGACGGG
# B2: 2 nt double flap (U1:T1:D1.2) (mixed)
# DNA 1: GTCGTTTTACAACGACGTGACTGGG
# DNA 2: GCCCAGTCACGTCGTTGTAAAACGGGTCGTGACTGGGAAAACCCTGGCG
# DNA 3: CGCCAGGGTTTTCCCAGTCACGACCA
# B3: 10 nt double flap (U1:T1:D1.10) (mixed)
# DNA 1: CACTGGCCGTCGTTTTACAACGACGTGACTGGG
# DNA 2: B2 DNA 2
# DNA 3: CGCCAGGGTTTTCCCAGTCACGACCA
# B4: 15 nt double flap (U1:T1:D1.15) (mixed)
# DNA 1: TAATTCACTGGCCGTCGTTTTACAACGACGTGACTGGG
# DNA 2: B2 DNA 2
# DNA 3: CGCCAGGGTTTTCCCAGTCACGACCA
# B5: 20 nt double flap (U1:T1:D1.20) (mixed)
# DNA 1: TTAGTTAATTCACTGGCCGTCGTTTTACAACGACGTGACTGGG
# DNA 2: B2 DNA 2
# DNA 3: CGCCAGGGTTTTCCCAGTCACGACCA
# B6: 30 nt double flap (U1:T1:D1.30) (mixed)
# DNA 1: TTCACGCCTGTTAGTTAATTCACTGGCCGTCGTTTTACAACGACGTGACTGGG
# DNA 2: B2 DNA 2
# DNA 3: CGCCAGGGTTTTCCCAGTCACGACCA
# B7: 5 nt double flap (U1:T1:D1.5) (mixed)
# DNA 1: GCCGTCGTTTTACAACGACGTGACTGGG
# DNA 2: B2 DNA 2
# DNA 3: CGCCAGGGTTTTCCCAGTCACGACCA
# B8: 30 nt double flap (U2:T3:D2.30) (mixed)
# DNA 1: TTCTACTTCCAATTGATACGCGCTATAACCCCCGTCCACCCGACGCCACCTCCTGC
# DNA 2: GCAGGAGGTGGCGTCGGGTGGACGGGATTGAAATTTAGGCTGGCACGGTCG
# DNA 3: CGACCGTGCCAGCCTAAATTTCAATT
# B9: 30 nt flap, 5 nt gap (U3:T3:D2.30) (mixed)
# DNA 1: B8 DNA 1
# DNA 2: B8 DNA 2
# DNA 3: CGACCGTGCCAGCCTAAATT
# B10: 30 nt flap, 2 nt gap (U4:T3:D2.30) (mixed)
# DNA 1: B8 DNA 1
# DNA 2: B8 DNA 2
# DNA 3: CGACCGTGCCAGCCTAAATTTCA
# B11: 30 nt 5'-tail (T4:D2.30) (mixed)
# DNA 1: B8 DNA 1
# DNA 2: GCAGGAGGTGGCGTCGGGTGGACGGG
# Experiments:
# Test in all cases: EMSA
# FEN1 (hFEN1) [1] = biological target: T2, FEN1 (hFEN1) (human, UniProt P39748 1-380)
# T2 sequence (P39748 whole entry): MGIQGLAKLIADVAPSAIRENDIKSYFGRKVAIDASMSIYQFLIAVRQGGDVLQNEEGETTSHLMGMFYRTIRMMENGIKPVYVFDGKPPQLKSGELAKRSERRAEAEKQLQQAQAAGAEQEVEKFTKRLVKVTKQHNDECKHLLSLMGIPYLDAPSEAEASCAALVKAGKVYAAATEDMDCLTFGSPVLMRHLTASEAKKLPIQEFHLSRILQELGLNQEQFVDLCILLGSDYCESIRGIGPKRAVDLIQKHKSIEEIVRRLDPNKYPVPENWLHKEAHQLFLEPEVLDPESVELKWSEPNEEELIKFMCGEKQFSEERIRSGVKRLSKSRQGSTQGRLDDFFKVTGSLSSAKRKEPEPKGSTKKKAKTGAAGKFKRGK
# Dna2 (hDna2) [2] = biological target: T1, Dna2 (hDna2)
# FEN1 (hFEN1) [3] = biological target: T2, FEN1 (hFEN1); remark: listed apart in the source
# Dna2 (hDna2) [4] = biological target: T1, Dna2 (hDna2); remark: listed apart in the source
# Dna2 (hDna2) [5] = biological target: T1, Dna2 (hDna2); remark: listed apart in the source
# FEN1 (hFEN1) [6] = biological target: T2, FEN1 (hFEN1); remark: listed apart in the source
# [7] = biological target: Dna2 (hDna2);FEN1 (hFEN1) (human;human, UniProt P51530;P39748 1-1060;1-380, |)
# Dna2 (hDna2);FEN1 (hFEN1), sequence (P39748 whole entry, one chain of several): as the sequence (P39748 whole entry) above
# Dna2 (hDna2) [8] = biological target: T1, Dna2 (hDna2); remark: listed apart in the source
# Dna2 (hDna2) [9] = biological target: T1, Dna2 (hDna2); remark: listed apart in the source
# Dna2 (hDna2) [10] = biological target: T1, Dna2 (hDna2); remark: listed apart in the source
binder,measurement,setting,value
B1,binding result,FEN1 (hFEN1) [1],no binding
B2,binding result,Dna2 (hDna2) [2],no binding
B3,binding result,FEN1 (hFEN1) [3],binds
B4,binding result,FEN1 (hFEN1) [3],binds
B5,binding result,FEN1 (hFEN1) [3],binds
B6,binding result,Dna2 (hDna2) [4],binds
same,binding result,FEN1 (hFEN1) [3],binds
B7,binding result,Dna2 (hDna2) [2],no binding
same,binding result,FEN1 (hFEN1) [3],binds
B8,binding result,Dna2 (hDna2) [5],binds
same,binding result,FEN1 (hFEN1) [6],binds
same,binding result,[7],binds
B9,binding result,Dna2 (hDna2) [8],binds
B10,binding result,Dna2 (hDna2) [9],binds
B11,binding result,Dna2 (hDna2) [10],binds
same,binding result,FEN1 (hFEN1) [1],no binding
